According to PMC10003956, “To the Understanding of Catalysis by D-Amino Acid Transaminases: A Case Study of the Enzyme from Aminobacterium colombiense” (Molecules, 2023):

Target: D-amino acid transaminase from Aminobacterium colombiense (AmicoTA) (Aminobacterium colombiense)
Assay: SEC; gel filtration of AmicoTA in solution (Figure S7); conditions not told for this experiment

Substance “D-amino acid transaminase from Aminobacterium colombiense (AmicoTA) (enzyme)” has a stoichiometry N of 2.
